In US20240101668A1 (WUGEN, published 2024):

T1: huCLL1-K244-Avi-Tev-His (human, UniProt Q5QGZ9 65-265)
T1 construct: extracellular domain
T1 sequence (looked up): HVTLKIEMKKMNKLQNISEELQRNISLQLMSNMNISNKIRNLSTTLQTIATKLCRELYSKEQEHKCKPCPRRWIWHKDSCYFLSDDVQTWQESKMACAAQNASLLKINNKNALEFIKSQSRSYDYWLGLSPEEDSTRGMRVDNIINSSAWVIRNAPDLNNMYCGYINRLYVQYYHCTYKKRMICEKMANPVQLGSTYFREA

T2: huCLL1-Q244-Avi-Tev-His (human, UniProt Q5QGZ9 65-265)
T2 construct: extracellular domain; also called CLL-1 K244Q
T2 sequence (looked up): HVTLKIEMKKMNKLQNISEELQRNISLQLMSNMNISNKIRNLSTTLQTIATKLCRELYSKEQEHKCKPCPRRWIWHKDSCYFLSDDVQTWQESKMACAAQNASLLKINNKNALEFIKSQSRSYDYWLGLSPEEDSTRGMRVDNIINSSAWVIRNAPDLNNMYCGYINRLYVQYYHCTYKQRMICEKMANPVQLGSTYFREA


Assays:
[1] = target: T3, huFLT3-M227 stably expressed on Ramos cells (human, UniProt P36888 27-993); assay: FACS on cells
T3 construct: whole, on cells; also called FLT3 Mutant
T3 sequence (P36888 27-993 T227M): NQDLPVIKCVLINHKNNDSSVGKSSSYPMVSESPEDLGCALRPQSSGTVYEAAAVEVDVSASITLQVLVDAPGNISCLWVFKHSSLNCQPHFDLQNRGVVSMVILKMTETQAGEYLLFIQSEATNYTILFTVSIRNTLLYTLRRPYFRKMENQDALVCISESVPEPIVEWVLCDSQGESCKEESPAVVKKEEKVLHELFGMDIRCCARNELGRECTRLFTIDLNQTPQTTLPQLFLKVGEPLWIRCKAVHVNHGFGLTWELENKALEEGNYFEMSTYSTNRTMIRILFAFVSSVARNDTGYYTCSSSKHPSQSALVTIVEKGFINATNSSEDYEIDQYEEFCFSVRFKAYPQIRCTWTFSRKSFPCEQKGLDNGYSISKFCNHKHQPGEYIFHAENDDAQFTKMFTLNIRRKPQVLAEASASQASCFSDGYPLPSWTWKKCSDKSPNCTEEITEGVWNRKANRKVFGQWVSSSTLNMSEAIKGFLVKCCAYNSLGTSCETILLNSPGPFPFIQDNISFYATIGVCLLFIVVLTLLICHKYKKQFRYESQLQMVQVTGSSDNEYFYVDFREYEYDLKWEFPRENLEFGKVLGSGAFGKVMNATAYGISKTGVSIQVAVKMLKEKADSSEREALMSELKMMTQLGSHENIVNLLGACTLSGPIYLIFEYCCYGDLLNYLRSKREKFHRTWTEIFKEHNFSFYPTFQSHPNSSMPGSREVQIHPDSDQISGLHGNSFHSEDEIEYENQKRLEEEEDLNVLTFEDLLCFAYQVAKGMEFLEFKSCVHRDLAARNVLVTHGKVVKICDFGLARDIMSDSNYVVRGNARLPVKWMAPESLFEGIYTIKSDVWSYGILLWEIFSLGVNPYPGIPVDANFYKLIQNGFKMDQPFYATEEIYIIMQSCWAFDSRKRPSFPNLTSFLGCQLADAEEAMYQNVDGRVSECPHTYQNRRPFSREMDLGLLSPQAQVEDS

[2] = target: T1, huCLL1-K244-Avi-Tev-His; assay: BLI
[3] = target: T2, huCLL1-Q244-Avi-Tev-His; assay: BLI

Row | Binder | FACS geometric mean fold change over Jurkat parental [1] [fold] | binding result [2] | binding result [3]
1 | Polypeptide No. 282 (scFv, V domains shown, scFv) VH: QVQLVQSGAEVKKPGASVKVSCKASGGTFSSYAISWVRQAPGQGLEWMGWMNPNSGDTGYAQKFQGRVTMTRDTSTSTVYMELSSLRSEDTAVYYCARDFEGGGWFDPWGQGTLVTVSS VL: EIVMTQSPATLSVSPGERATLSCRASRSISDYLAWYQQKPGQAPRLLIYDASSRATGIPARFSGSGSGTEFTLTISSLQSEDFAVYYCQQYYTTPLTFGQGTKVEIKR | 2 to 10 | – | –
2 | Polypeptide No. 286 (scFv, V domains shown, scFv) VH: QVQLVQSGAEVKKPGASVKVSCKASGYTFTSYGISWVRQAPGQGLEWMGWISPNSGVTNYAQKFQGRVTMTRDTSTSTVYMELSSLRSEDTAVYYCVSDDYGAFDYWGQGTLVTVSS VL: EIVMTQSPATLSVSPGERATLSCRASQSVSSSYLAWYQQKPGQAPRLLIYDVSTRASGIPARFSGSGSGTEFTLTISSLQSEDFAVYYCQQYNNWPYTFGQGTKLEIKR | 2 to 10 | – | –
3 | Polypeptide No. 147 (scFv, V domains shown, scFv) VH: QVQLVQSGAEVKKPGASVKVSCKASGYTFTSYHIHWVRQAPGQGLEWVGGIIPSGGSTSYAQKFQGRVTMTRDTSTSTVYMELSSLRSEDTAVYYCARGTNDDHYDYWGQGTLVTVSS VL: DIQMTQSPSSLSASVGDRVTITCRASQGISNYLAWYQQKPGKAPKLLIYDASNLETGVPSRFSGSGSGTDFTLTISSLQPEDFATYYCQQSYSTPLTFGGGTKVEIKR | – | binds | binds
4 | Polypeptide No. 149 (scFv, V domains shown, scFv) VH: QVQLVQSGAEVKKPGASVKVSCKASGYTFTSYDINWVRQAPGQGLEWMGWMNPNSGNTGYAQKFQGRVTMTRDTSTSTVYMELSSLRSEDTAVYYCARELEGEWFDPWGQGTLVTVSS VL: DIQMTQSPSSLSASVGDRVTITCRASQSISSYLNWYQQKPGKAPKLLIYSASNLQSGVPSRFSGSGSGTDFTLTISSLQPEDFATYYCQQAISFPLTFGQGTKVEIKR | – | binds | binds
5 | Polypeptide No. 152 (scFv, V domains shown, scFv) VH: QVQLVQSGAEVKKPGASVKVSCKASGGTFSTNAISWVRQAPGQGLEWMGWMNPNSGNTGYAQKFQGRVTMTRDTSTSTVYMELSSLRSEDTAVYYCAKEDYGGNFDYWGQGTLVTVSS VL: DIQMTQSPSSLSASVGDRVTITCRASQSIGPWLAWYQQKPGKAPKLLIYDASNLQAGVPSRFSGSGSGTDFTLTISSLQPEDFATYYCQQSHSLPLTFGPGTKVDIKR | – | binds | binds
6 | Polypeptide No. 153 (scFv, V domains shown, scFv) VH: QVQLVQSGAEVKKPGASVKVSCKASGGAFSSYALSWVRQAPGQGLEWMGWMNPNSGNTGYAQKFQGRVTMTRDTSTSTVYMELSSLRSEDTAVYYCAADWMIGGDAFDIWGQGTTVTVSS VL: DIQMTQSPSSLSASVGDRVTITCRASQSISSWLAWYQQKPGKAPKLLIYDASRLQSGVPSRFSGSGSGTDFTLTISSLQPEDFATYYCQQSYGIPLTFGGGTKVEIKR | – | binds | binds
7 | Polypeptide No. 156 (scFv, V domains shown, scFv) VH: QVQLVQSGAEVKKPGASVKVSCKASGYTFTGYFIHWVRQAPGQGLEWMGWMNPNSGNTGYAQKFQGRVTMTRDTSTSTVYMELSSLRSEDTAVYYCARGDYADWFDPWGQGTLVTVSS VL: DIQMTQSPSSLSASVGDRVTITCRASQSISTWLAWYQQKPGKAPKLLIYDAFTLETGVPSRFSGSGSGTDFTLTISSLQPEDFATYYCQQSYSTPLTFGQGTKVEIKR | – | binds | binds
8 | Polypeptide No. 145 (scFv, V domains shown, scFv) VH: QVQLVQSGAEVKKPGASVKVSCKASGGTFSTSYMHWVRQAPGQGLEWMGWIHPDDGNTDYAPKFQGRVTMTRDTSTSTVYMELSSLRSEDTAVYYCARDLGDYDTFDIWGQGTMVTVSS VL: DIQMTQSPSSLSASVGDRVTITCRVSQGISSYLNWYQQKPGKAPKLLIYDASNLQAGVPSRFSGSGSGTDFTLTISSLQPEDFATYYCQQSYSTPPTFGQGTKVEIKR | – | binds | binds
9 | Polypeptide No. 177 (scFv, V domains shown, scFv) VH: QVQLVQSGAEVKKPGASVKVSCKASGYTFTSYYMHWVRQAPGQGLEWMGWMNPNSGNTGYAQKFQGRVTMTRDTSTSTVYMELSSLRSEDTAVYYCARSTYSDSFDYWGQGTLVTVSS VL: DIQMTQSPSSLSASVGDRVTITCRASQSISNWLAWYQQKPGKAPKLLIYDASNLETGVPSRFSGSGSGTDFTLTISSLQPEDFATYYCQQSYSTPLTFGQGTKLEIKR | – | binds | binds
10 | Polypeptide No. 155 (scFv, V domains shown, scFv) VH: QVQLVQSGAEVKKPGASVKVSCKASGYTFTSYDINWVRQAPGQGLEWMGWMNPSSGDSGYAQKFQGRVTMTRDTSTSTVYMELSSLRSEDTAVYYCARPERSDAFDIWGQGTTVTVSS VL: DIQMTQSPSSLSASVGDRVTITCRASQSIGPWLAWYQQKPGKAPKLLIYDASNLEAGVPSRFSGSGSGTDFTLTISSLQPEDFATYYCQQSFSSPLTFGGGTKVEIKR | – | binds | binds
11 | Polypeptide No. 157 (scFv, V domains shown, scFv) VH: QVQLVQSGAEVKKPGASVKVSCKASGYTFSDYYIHWVRQAPGQGLEWMGIINPSGGSTSYAQKFQGRVTMTRDTSTSTVYMELSSLRSEDTAVYYCARGMTDDAFDIWGQGTMVTVSS VL: DIQMTQSPSSLSASVGDRVTITCRASQGISSWLAWYQQKPGKAPKLLIYDASNLETGVPSRFSGSGSGTDFTLTISSLQPEDFATYYCQQTYAIPLTFGGGTKLEIKR | – | binds | binds

More lines, now with the values ahead:

Row | FACS geometric mean fold change over Jurkat parental [1] [fold] | binding result [2] | binding result [3] | Binder
12 | – | binds | binds | Polypeptide No. 150 (scFv, V domains shown, scFv) VH: QVQLVQSGAEVKKPGASVKVSCKASGYIFTSQYIHWVRQAPGQGLEWMGWINPNSGGTNYAQKFQGRVTMTRDTSTSTVYMELSSLRSEDTAVYYCARDPWGAYGGDAFDIWGQGTMVTVSS VL: DIQMTQSPSSLSASVGDRVTITCRASQGISNNLNWYQQKPGKAPKLLIYDASHLDTGVPSRFSGSGSGTDFTLTISSLQPEDFATYYCQQNYSPPPTFGQGTRLEIKR
13 | – | binds | binds | Polypeptide No. 144 (scFv, V domains shown, scFv) VH: QVQLVQSGAEVKKPGASVKVSCKASGYTFTAYYMHWVRQAPGQGLEWMGIIDPSGGSTSYAQQFQGRVTMTRDTSTSTVYMELSSLRSEDTAVYYCARGDYGDYHTLWGQGTLVTVSS VL: DIQMTQSPSSLSASVGDRVTITCRASQGISSYLAWYQQKPGKAPKLLIYDASSLQSGVPSRFSGSGSGTDFTLTISSLQPEDFATYYCQQSYSTPITFGPGTKVDIKR
14 | – | binds | binds | Polypeptide No. 159 (scFv, V domains shown, scFv) VH: QVQLVQSGAEVKKPGASVKVSCKASGYSFTANYIHWVRQAPGQGLEWMGIINPSGGSTSYAQKFQGRVTMTRDTSTSTVYMELSSLRSEDTAVYYCARGNYGDYVEDWGQGTLVTVSS VL: DIQMTQSPSSLSASVGDRVTITCRASQSISSWLAWYQQKPGKAPKLLIYDASNLETGVPSRFSGSGSGTDFTLTISSLQPEDFATYYCQQSYGTPLTFGGGTKVEIKR
15 | – | binds | binds | Polypeptide No. 151 (scFv, V domains shown, scFv) VH: QVQLVQSGAEVKKPGASVKVSCKASGYTFTDYYIHWVRQAPGQGLEWMGWMNPNSGNTGYAQKFQGRVTMTRDTSTSTVYMELSSLRSEDTAVYYCARVDTADYMDVWGKGTLVTVSS VL: DIQMTQSPSSLSASVGDRVTITCRASQGISSWLAWYQQKPGKAPKLLIYDASNLQTGVPSRFSGSGSGTDFTLTISSLQPEDFATYYCQQSYSTPLTFGQGTKVEIKR
16 | – | binds | binds | Polypeptide No. 148 (scFv, V domains shown, scFv) VH: QVQLVQSGAEVKKPGASVKVSCKASGGTFTTYGISWVRQAPGQGLEWMGWMNPFSDNTDYAQNFQGRVTMTRDTSTSTVYMELSSLRSEDTAVYYCARGTGDDAFDIWGQGTMVTVSS VL: DIQMTQSPSSLSASVGDRVTITCRASQSISTWVAWYQQKPGKAPKLLIYAASSLQSGVPSRFSGSGSGTDFTLTISSLQPEDFATYYCQQSFSIPLTFGQGTKVEIKR
17 | – | binds | binds | Polypeptide No. 158 (scFv, V domains shown, scFv) VH: QVQLVQSGAEVKKPGASVKVSCKASGDSFSSYGISWVRQAPGQGLEWMGWINPKSGATTSAQKFQGRVTMTRDTSTSTVYMELSSLRSEDTAVYYCARSTAFDAFDIWGQGTTVTVSS VL: DIQMTQSPSSLSASVGDRVTITCRASQSISSWLAWYQQKPGKAPKLLIYDASNLETGVPSRFSGSGSGTDFTLTISSLQPEDFATYYCQQSYSTPLTFGQGTKVEIKR
18 | – | binds | binds | Polypeptide No. 146 (scFv, V domains shown, scFv) VH: QVQLVQSGAEVKKPGASVKVSCKASGYTFSGHYMHWVRQAPGQGLEWMGWIDPNSGGTNYAQKFQGRVTMTRDTSTSTVYMELSSLRSEDTAVYYCARDYPFYGDNDAFDIWGQGTTVTVSS VL: DIQMTQSPSSLSASVGDRVTITCRVSQGISSYLNWYQQKPGKAPKLLIYEASSLESGVPSRFSGSGSGTDFTLTISSLQPEDFATYYCQQSYSIPFTFGPGTKVDIKR
19 | – | binds | binds | Polypeptide No. 154 (scFv, V domains shown, scFv) VH: QVQLVQSGAEVKKPGASVKVSCKASGGTFSSYGVTWVRQAPGQGLEWMGWINPNTGGTDYAQNFQGRVTMTRDTSTSTVYMELSSLRSEDTAVYYCAGEVGVGGYDAFDIWGQGTTVTVSS VL: DIQMTQSPSSLSASVGDRVTITCRASQGISNWLAWYQQKPGKAPKLLIYAASSLQSGVPSRFSGSGSGTDFTLTISSLQPEDFATYYCQQSYSIPLTFGGGTKVEIKR
